# Data: patent US20250218531A1 (ABSCI, published 2025)
# Where a chain is given by its changes, count along the chain named. Values joined by “and” are separate entries in the source; they are usually repeats but may differ in a detail not shown here. Identical values can stand only once.
# B1: Trastuzumab HCDR3 variant ARYYVGYYAMDY (Fab, V domains shown)
# VH: EVQLVESGGGLVQPGGSLRLSCAASGFNIKDTYIHWVRQAPGKGLEWVARIYPTNGYTRYADSVKGRFTISADTSKNTAYLQMNSLRAEDTAVYYCARYYVGYYAMDYWGQGTLVTVSS
# VL: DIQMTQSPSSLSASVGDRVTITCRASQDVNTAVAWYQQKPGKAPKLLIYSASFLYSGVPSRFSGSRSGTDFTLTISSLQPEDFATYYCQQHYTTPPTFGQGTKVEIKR
# B2: Trastuzumab HCDR3 variant ASYMGIVGYYPG (Fab, V domains shown)
# VH: B1 VH with R98S, Y100M, V101G, G102I, Y103V, Y104G, A105Y, M106Y, D107P, Y108G
# VL: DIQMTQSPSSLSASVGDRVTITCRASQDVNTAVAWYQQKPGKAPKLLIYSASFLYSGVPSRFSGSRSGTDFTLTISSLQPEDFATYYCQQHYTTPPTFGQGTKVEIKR
# B3: Trastuzumab HCDR3 variant ARYYYSGYYMSV (Fab, V domains shown)
# VH: B1 VH with V101Y, G102S, Y103G, A105Y, D107S, Y108V
# VL: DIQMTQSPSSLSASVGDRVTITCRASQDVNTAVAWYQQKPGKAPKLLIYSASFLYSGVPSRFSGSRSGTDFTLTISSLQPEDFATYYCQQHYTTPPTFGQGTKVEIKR
# B4: Trastuzumab HCDR3 variant VRYYRGYYYFDY (Fab, V domains shown)
# VH: B1 VH with A97V, V101R, A105Y, M106F
# VL: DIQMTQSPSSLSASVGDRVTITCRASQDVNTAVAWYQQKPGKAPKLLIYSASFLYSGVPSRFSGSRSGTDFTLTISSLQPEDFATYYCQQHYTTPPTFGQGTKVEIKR
# B5: Trastuzumab HCDR3 variant … (Fab, V domains shown)
# VH: B1 VH with V101D, G102Y, Y103G, A105T, M106F
# VL: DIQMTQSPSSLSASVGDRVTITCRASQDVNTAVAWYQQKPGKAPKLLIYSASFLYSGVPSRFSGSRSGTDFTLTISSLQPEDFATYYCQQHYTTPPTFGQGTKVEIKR
# B6: Trastuzumab HCDR3 variant TRYFYDFPYMDY (Fab, V domains shown)
# VH: B1 VH with A97T, Y100F, V101Y, G102D, Y103F, Y104P, A105Y
# VL: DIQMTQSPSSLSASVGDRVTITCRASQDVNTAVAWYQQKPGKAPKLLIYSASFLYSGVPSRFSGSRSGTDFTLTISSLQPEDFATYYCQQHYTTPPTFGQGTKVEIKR
# B7: Trastuzumab HCDR3 variant TLNGPLYWMWTL (Fab, V domains shown)
# VH: EVQLVESGGGLVQPGGSLRLSCAASGFNIKDTYIHWVRQAPGKGLEWVARIYPTNGYTRYADSVKGRFTISADTSKNTAYLQMNSLRAEDTAVYYCTLNGPLYWMWTLWGQGTLVTVSS
# VL: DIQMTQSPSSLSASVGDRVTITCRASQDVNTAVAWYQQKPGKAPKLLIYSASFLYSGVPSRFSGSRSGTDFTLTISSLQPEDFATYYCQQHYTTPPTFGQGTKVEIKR
# B8: Trastuzumab HCDR3 variant SRWYGDYFAMDY (Fab, V domains shown)
# VH: B1 VH with A97S, Y99W, V101G, G102D, Y104F
# VL: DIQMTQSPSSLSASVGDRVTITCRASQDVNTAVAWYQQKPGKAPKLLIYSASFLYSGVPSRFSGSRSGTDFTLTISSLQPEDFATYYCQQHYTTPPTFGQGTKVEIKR
# B9: Trastuzumab HCDR3 variant SIYGTDYYWFAD (Fab, V domains shown)
# VH: B1 VH with A97S, R98I, Y100G, V101T, G102D, A105W, M106F, D107A, Y108D
# VL: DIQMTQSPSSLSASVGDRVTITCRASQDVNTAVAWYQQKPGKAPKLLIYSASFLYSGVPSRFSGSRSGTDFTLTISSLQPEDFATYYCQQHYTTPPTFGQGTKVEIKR
# B10: Trastuzumab HCDR3 variant TRTRSGAYFFDY (Fab, V domains shown)
# VH: B1 VH with A97T, Y99T, Y100R, V101S, Y103A, A105F, M106F
# VL: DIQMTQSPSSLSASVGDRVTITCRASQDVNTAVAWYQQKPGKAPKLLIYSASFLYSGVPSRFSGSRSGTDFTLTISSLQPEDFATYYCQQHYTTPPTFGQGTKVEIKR
# B11: Trastuzumab HCDR3 variant TRNGPLYWHWDL (Fab, V domains shown)
# VH: B7 VH with L98R, M105H, T107D
# VL: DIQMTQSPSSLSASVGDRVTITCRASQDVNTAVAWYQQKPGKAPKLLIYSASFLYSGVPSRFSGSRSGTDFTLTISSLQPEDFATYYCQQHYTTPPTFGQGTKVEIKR
# B12: Trastuzumab HCDR3 variant ATGPYTVYSYPY (Fab, V domains shown)
# VH: B1 VH with R98T, Y99G, Y100P, V101Y, G102T, Y103V, A105S, M106Y, D107P
# VL: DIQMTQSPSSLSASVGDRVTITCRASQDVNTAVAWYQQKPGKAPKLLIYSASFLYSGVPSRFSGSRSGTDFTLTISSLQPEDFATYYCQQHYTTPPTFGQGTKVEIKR
# B13: Trastuzumab HCDR3 variant TRTTLGFYAMDY (Fab, V domains shown)
# VH: B1 VH with A97T, Y99T, Y100T, V101L, Y103F
# VL: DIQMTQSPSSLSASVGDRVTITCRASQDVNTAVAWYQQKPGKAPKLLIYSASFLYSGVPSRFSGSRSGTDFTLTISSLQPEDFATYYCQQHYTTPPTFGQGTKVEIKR
# B14: Trastuzumab HCDR3 variant ATNAFGLWSYGF (Fab, V domains shown)
# VH: B1 VH with R98T, Y99N, Y100A, V101F, Y103L, Y104W, A105S, M106Y, D107G, Y108F
# VL: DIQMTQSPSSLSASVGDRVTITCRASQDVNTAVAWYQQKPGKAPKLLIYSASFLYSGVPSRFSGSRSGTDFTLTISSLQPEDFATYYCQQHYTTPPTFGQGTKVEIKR
# B15: Trastuzumab HCDR3 variant ASYYDYYYAFGT (Fab, V domains shown)
# VH: B1 VH with R98S, V101D, G102Y, M106F, D107G, Y108T
# VL: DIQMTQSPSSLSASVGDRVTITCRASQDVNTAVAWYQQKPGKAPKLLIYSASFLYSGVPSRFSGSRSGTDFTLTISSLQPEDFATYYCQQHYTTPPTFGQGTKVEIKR
# B16: Trastuzumab HCDR3 variant TRYYDGYYAMDY (Fab, V domains shown)
# VH: B1 VH with A97T, V101D
# VL: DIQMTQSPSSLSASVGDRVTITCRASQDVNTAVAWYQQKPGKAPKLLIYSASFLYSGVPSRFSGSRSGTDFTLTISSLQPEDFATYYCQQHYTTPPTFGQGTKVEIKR
# B17: Trastuzumab HCDR3 variant ASGDLTAGSSQT (Fab, V domains shown)
# VH: EVQLVESGGGLVQPGGSLRLSCAASGFNIKDTYIHWVRQAPGKGLEWVARIYPTNGYTRYADSVKGRFTISADTSKNTAYLQMNSLRAEDTAVYYCASGDLTAGSSQTWGQGTLVTVSS
# VL: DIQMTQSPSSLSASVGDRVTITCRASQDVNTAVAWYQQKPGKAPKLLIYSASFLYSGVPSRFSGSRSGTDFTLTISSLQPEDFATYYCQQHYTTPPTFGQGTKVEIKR
# B18: Trastuzumab HCDR3 variant VKHGIDYYWYGD (Fab, V domains shown)
# VH: B1 VH with A97V, R98K, Y99H, Y100G, V101I, G102D, A105W, M106Y, D107G, Y108D
# VL: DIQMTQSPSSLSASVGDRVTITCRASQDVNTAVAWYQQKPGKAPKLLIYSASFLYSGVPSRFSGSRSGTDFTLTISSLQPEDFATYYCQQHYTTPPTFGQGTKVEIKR
# B19: Trastuzumab HCDR3 variant ARYGYGYYYYFDY (Fab, V domains shown)
# VH: EVQLVESGGGLVQPGGSLRLSCAASGFNIKDTYIHWVRQAPGKGLEWVARIYPTNGYTRYADSVKGRFTISADTSKNTAYLQMNSLRAEDTAVYYCARYGYGYYYYFDYWGQGTLVTVSS
# VL: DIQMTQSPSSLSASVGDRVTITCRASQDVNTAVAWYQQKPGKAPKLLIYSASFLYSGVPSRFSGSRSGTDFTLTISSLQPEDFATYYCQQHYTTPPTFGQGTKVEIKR
# B20: Trastuzumab HCDR3 variant ARFSGYGAYDYAY (Fab, V domains shown)
# VH: B19 VH with Y99F, G100S, Y101G, G102Y, Y103G, Y104A, Y106D, F107Y, D108A
# VL: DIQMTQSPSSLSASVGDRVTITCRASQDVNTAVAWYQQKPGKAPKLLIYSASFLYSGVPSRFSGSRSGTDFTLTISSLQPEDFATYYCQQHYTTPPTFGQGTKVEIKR
# B21: Trastuzumab HCDR3 variant ARHYDYGRYYMDV (Fab, V domains shown)
# VH: B19 VH with Y99H, G100Y, Y101D, G102Y, Y103G, Y104R, F107M, Y109V
# VL: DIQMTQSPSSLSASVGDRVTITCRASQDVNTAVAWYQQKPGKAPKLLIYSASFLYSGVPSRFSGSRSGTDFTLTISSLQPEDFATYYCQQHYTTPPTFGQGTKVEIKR
# B22: Trastuzumab HCDR3 variant AKYTRGFSYGFGY (Fab, V domains shown)
# VH: B19 VH with R98K, G100T, Y101R, Y103F, Y104S, Y106G, D108G
# VL: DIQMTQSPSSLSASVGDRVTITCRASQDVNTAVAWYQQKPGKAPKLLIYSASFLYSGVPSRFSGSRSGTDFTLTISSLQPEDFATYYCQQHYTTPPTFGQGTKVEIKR
# B23: Trastuzumab HCDR3 variant ANVGSSLGIAALD (Fab, V domains shown)
# VH: EVQLVESGGGLVQPGGSLRLSCAASGFNIKDTYIHWVRQAPGKGLEWVARIYPTNGYTRYADSVKGRFTISADTSKNTAYLQMNSLRAEDTAVYYCANVGSSLGIAALDWGQGTLVTVSS
# VL: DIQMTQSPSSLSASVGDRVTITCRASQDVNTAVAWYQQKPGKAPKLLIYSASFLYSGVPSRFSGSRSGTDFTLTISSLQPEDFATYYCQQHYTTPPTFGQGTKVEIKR
# B24: Trastuzumab HCDR3 variant AQYGRGGYWYFDY (Fab, V domains shown)
# VH: B19 VH with R98Q, Y101R, Y103G, Y105W
# VL: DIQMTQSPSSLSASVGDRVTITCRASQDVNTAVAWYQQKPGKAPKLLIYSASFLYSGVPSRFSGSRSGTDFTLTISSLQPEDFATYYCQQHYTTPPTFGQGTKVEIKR
# B25: Trastuzumab HCDR3 variant ARNSGTGIWAFAY (Fab, V domains shown)
# VH: B19 VH with Y99N, G100S, Y101G, G102T, Y103G, Y104I, Y105W, Y106A, D108A
# VL: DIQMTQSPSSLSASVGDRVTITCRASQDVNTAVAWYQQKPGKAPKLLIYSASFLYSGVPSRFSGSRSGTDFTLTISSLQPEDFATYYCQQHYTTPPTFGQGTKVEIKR
# B26: Trastuzumab HCDR3 variant ARDGYPFYSGMDY (Fab, V domains shown)
# VH: B19 VH with Y99D, G102P, Y103F, Y105S, Y106G, F107M
# VL: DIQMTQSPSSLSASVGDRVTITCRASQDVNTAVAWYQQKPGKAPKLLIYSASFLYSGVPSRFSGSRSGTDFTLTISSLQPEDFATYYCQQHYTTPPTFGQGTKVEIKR
# B27: Trastuzumab HCDR3 variant AKFHWGEDWLSDN (Fab, V domains shown)
# VH: B19 VH with R98K, Y99F, G100H, Y101W, Y103E, Y104D, Y105W, Y106L, F107S, Y109N
# VL: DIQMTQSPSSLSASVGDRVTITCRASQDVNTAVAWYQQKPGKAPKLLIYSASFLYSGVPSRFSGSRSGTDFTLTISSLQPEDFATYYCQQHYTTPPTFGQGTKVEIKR
# B28: Trastuzumab HCDR3 variant ARDSPYYGSLYLY (Fab, V domains shown)
# VH: B19 VH with Y99D, G100S, Y101P, G102Y, Y104G, Y105S, Y106L, F107Y, D108L
# VL: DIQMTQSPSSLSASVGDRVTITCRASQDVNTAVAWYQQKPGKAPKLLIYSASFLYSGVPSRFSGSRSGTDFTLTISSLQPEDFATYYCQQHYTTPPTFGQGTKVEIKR
# B29: Trastuzumab HCDR3 variant APWWSGWYYFFDT (Fab, V domains shown)
# VH: B19 VH with R98P, Y99W, G100W, Y101S, Y103W, Y106F, Y109T
# VL: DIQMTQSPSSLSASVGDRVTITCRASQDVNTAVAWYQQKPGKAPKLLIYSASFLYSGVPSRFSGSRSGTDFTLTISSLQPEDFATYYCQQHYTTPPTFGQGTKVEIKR
# B30: Trastuzumab HCDR3 variant AGSVAEGWYHYRD (Fab, V domains shown)
# VH: EVQLVESGGGLVQPGGSLRLSCAASGFNIKDTYIHWVRQAPGKGLEWVARIYPTNGYTRYADSVKGRFTISADTSKNTAYLQMNSLRAEDTAVYYCAGSVAEGWYHYRDWGQGTLVTVSS
# VL: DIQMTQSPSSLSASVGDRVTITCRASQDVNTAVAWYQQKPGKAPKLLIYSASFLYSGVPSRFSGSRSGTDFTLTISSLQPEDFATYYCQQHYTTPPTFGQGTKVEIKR
# B31: Trastuzumab HCDR3 variant AGSSASGWYHYTT (Fab, V domains shown)
# VH: B30 VH with V100S, E102S, R108T, D109T
# VL: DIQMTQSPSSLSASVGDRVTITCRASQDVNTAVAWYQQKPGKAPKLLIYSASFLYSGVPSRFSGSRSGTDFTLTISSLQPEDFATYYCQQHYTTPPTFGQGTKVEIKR
# B32: Trastuzumab HCDR3 variant ARGYYQDSQSWGY (Fab, V domains shown)
# VH: B19 VH with Y99G, G100Y, G102Q, Y103D, Y104S, Y105Q, Y106S, F107W, D108G
# VL: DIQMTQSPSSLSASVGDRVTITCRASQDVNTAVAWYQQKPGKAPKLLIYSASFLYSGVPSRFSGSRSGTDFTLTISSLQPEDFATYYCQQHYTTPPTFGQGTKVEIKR
# B33: Trastuzumab HCDR3 variant ARGGYGYYTWFDY (Fab, V domains shown)
# VH: B19 VH with Y99G, Y105T, Y106W
# VL: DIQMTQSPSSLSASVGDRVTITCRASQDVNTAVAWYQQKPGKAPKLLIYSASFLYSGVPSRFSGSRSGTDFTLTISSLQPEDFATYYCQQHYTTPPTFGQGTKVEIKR
# B34: Trastuzumab HCDR3 variant ARAGGTSISLGHG (Fab, V domains shown)
# VH: B19 VH with Y99A, Y101G, G102T, Y103S, Y104I, Y105S, Y106L, F107G, D108H, Y109G
# VL: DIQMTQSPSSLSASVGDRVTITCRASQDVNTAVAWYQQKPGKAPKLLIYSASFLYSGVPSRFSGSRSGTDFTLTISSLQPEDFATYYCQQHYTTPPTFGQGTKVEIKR
# B35: Trastuzumab HCDR3 variant ARFGPAYFYGFYY (Fab, V domains shown)
# VH: B19 VH with Y99F, Y101P, G102A, Y104F, Y106G, D108Y
# VL: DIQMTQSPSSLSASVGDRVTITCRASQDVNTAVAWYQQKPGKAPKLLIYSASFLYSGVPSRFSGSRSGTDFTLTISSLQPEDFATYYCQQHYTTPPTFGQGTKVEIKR
# B36: Trastuzumab HCDR3 variant ARNYYYGAYYFDY (Fab, V domains shown)
# VH: B19 VH with Y99N, G100Y, G102Y, Y103G, Y104A
# VL: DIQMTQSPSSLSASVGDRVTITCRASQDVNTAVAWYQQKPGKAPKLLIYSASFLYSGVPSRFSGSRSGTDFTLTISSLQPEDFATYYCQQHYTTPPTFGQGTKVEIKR
# B37: Trastuzumab HCDR3 variant ARGHYSLGYSFDF (Fab, V domains shown)
# VH: B19 VH with Y99G, G100H, G102S, Y103L, Y104G, Y106S, Y109F
# VL: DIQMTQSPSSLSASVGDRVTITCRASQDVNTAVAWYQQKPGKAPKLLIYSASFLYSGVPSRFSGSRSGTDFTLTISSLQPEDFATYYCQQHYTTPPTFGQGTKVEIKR
# B38: Trastuzumab HCDR3 variant AQNWDRGSYFYTY (Fab, V domains shown)
# VH: B30 VH with G98Q, S99N, V100W, A101D, E102R, W104S, H106F, R108T, D109Y
# VL: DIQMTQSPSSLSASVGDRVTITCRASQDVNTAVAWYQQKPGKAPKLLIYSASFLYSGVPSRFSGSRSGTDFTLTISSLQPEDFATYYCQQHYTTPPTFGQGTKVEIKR
# B39: Trastuzumab HCDR3 variant ARDVYVGSPVFDY (Fab, V domains shown)
# VH: B19 VH with Y99D, G100V, G102V, Y103G, Y104S, Y105P, Y106V
# VL: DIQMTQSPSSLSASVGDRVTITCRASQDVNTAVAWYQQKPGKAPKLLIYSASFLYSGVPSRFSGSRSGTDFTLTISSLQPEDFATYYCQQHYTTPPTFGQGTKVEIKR
# B40: Trastuzumab HCDR3 variant ARDGYPQYGGYGY (Fab, V domains shown)
# VH: B19 VH with Y99D, G102P, Y103Q, Y105G, Y106G, F107Y, D108G
# VL: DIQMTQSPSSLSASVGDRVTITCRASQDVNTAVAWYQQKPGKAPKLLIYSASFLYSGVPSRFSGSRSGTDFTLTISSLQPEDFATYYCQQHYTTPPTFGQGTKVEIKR
# B41: Trastuzumab HCDR3 variant AIWSMYDVGYYPF (Fab, V domains shown)
# VH: EVQLVESGGGLVQPGGSLRLSCAASGFNIKDTYIHWVRQAPGKGLEWVARIYPTNGYTRYADSVKGRFTISADTSKNTAYLQMNSLRAEDTAVYYCAIWSMYDVGYYPFWGQGTLVTVSS
# VL: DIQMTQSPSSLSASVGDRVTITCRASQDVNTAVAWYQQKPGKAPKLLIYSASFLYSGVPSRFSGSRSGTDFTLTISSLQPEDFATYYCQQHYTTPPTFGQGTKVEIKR
# B42: Trastuzumab HCDR3 variant AKFERGYYSFDFG (Fab, V domains shown)
# VH: B19 VH with R98K, Y99F, G100E, Y101R, Y105S, Y106F, F107D, D108F, Y109G
# VL: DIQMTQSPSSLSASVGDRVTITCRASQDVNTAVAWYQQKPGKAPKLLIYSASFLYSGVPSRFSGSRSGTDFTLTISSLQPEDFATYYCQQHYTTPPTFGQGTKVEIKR
# B43: Trastuzumab HCDR3 variant ARFGGAGGYYFDY (Fab, V domains shown)
# VH: B19 VH with Y99F, Y101G, G102A, Y103G, Y104G
# VL: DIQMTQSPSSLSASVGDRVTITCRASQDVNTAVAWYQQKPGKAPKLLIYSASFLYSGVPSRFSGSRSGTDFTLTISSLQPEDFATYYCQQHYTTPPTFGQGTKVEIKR
# B44: Trastuzumab HCDR3 variant APWGTYRYGYFDH (Fab, V domains shown)
# VH: B19 VH with R98P, Y99W, Y101T, G102Y, Y103R, Y105G, Y109H
# VL: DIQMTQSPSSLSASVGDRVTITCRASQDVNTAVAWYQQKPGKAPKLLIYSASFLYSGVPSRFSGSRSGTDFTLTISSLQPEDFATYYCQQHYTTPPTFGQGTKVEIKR
# B45: Trastuzumab HCDR3 variant ARDGGMYRYGLYG (Fab, V domains shown)
# VH: B19 VH with Y99D, Y101G, G102M, Y104R, Y106G, F107L, D108Y, Y109G
# VL: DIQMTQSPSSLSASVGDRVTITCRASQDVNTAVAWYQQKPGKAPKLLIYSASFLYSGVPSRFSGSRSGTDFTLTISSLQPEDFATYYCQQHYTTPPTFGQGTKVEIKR
# B46: Trastuzumab HCDR3 variant ARPSYDVGGDMLF (Fab, V domains shown)
# VH: B41 VH with I98R, W99P, M101Y, Y102D, D103V, V104G, Y106D, Y107M, P108L
# VL: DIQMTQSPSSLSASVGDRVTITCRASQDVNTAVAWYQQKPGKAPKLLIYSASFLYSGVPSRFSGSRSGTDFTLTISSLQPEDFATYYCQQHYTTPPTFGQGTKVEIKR
# B47: Trastuzumab HCDR3 variant AGYEGYGLYPFAY (Fab, V domains shown)
# VH: B19 VH with R98G, G100E, Y101G, G102Y, Y103G, Y104L, Y106P, D108A
# VL: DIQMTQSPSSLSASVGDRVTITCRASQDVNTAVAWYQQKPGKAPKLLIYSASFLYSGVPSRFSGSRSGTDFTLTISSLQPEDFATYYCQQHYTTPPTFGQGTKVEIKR
# Target: human epidermal growth factor receptor 2 (HER2) extracellular domain (human, UniProt P04626 23-629)
# Assay: SPR
Binder,Kd,log(KD (M))
B1,71.6 nM,-7.15 log(M)
B2,62.3 nM,-7.21 log(M)
B3,85.2 nM,-7.07 log(M)
B4,96.4 nM,-7.02 log(M)
B5,61.2 nM,-7.21 log(M)
B6,56.8 nM,-7.25 log(M)
B7,116 nM,-6.94 log(M)
B8,51.8 nM,-7.29 log(M)
B9,50.4 nM,-7.3 log(M)
B10,43.4 nM,-7.36 log(M)
B11,234 nM,-6.63 log(M)
B12,120 nM,-6.92 log(M)
B13,32.3 nM,-7.49 log(M)
B14,52.8 nM,-7.28 log(M)
B15,36.1 nM,-7.44 log(M)
B16,33.1 nM,-7.48 log(M)
B17,219 nM,-6.66 log(M)
B18,60.1 nM,-7.22 log(M)
B19,39.1 nM,-7.41 log(M)
B20,125 nM,-6.9 log(M)
B21,30.9 nM,-7.51 log(M)
B22,37.8 nM,-7.42 log(M)
B23,36.7 nM,-7.44 log(M)
B24,188 nM,-6.72 log(M)

Binder,Kd,log(KD (M))
B25,65 nM,-7.19 log(M)
B26,154 nM,-6.81 log(M)
B27,59.1 nM,-7.23 log(M)
B28,205 nM,-6.69 log(M)
B29,33 nM,-7.48 log(M)
B30,60.3 nM,-7.22 log(M)
B31,42.3 nM and 42.2 nM,-7.37 log(M)
B32,166 nM,-6.78 log(M)
B33,42.1 nM,-7.38 log(M)
B34,67 nM,-7.17 log(M)
B35,50.9 nM,-7.29 log(M)
B36,45.5 nM,-7.34 log(M)
B37,256 nM,-6.59 log(M)
B38,43.1 nM and 43 nM,-7.37 log(M)
B39,278 nM,-6.56 log(M)
B40,127 nM,-6.9 log(M)
B41,71.8 nM,-7.14 log(M)
B42,38.3 nM,-7.42 log(M)
B43,35 nM,-7.46 log(M)
B44,67.6 nM,-7.17 log(M)
B45,231 nM,-6.64 log(M)
B46,83.3 nM and 83.2 nM,-7.08 log(M)
B47,128 nM,-6.89 log(M)
